Assay results taken from article PMC11467351.

Target: ButCD complex of B. fragilis GS077 (B. fragilis GS077 (endogenous))
Test: cryo-EM structure

- stoichiometry N: 2
Substance: ButCD complex of B. fragilis GS077
